Source: patent US20210196794A1 (SUNSHINE LAKE PHARMA, published 2021)

Assays:
[1] = target: βKlotho protein (AVIVA SYSTEMS BIOLOGY); test: ELISA on coated βKlotho, detection with anti-human IgG4 Fc-HRP, OD450
[2] = target: βKlotho protein (AVIVA SYSTEMS BIOLOGY); test: BLI (Octet RED 96), biotinylated βKlotho on streptavidin probe, fusion protein at 40 nM
[3] = target: βKlotho protein (AVIVA SYSTEMS BIOLOGY); test: BLI (Octet RED 96), biotinylated βKlotho on streptavidin probe

Sequence of βKlotho protein (AVIVA SYSTEMS BIOLOGY) (chain, as listed by the source): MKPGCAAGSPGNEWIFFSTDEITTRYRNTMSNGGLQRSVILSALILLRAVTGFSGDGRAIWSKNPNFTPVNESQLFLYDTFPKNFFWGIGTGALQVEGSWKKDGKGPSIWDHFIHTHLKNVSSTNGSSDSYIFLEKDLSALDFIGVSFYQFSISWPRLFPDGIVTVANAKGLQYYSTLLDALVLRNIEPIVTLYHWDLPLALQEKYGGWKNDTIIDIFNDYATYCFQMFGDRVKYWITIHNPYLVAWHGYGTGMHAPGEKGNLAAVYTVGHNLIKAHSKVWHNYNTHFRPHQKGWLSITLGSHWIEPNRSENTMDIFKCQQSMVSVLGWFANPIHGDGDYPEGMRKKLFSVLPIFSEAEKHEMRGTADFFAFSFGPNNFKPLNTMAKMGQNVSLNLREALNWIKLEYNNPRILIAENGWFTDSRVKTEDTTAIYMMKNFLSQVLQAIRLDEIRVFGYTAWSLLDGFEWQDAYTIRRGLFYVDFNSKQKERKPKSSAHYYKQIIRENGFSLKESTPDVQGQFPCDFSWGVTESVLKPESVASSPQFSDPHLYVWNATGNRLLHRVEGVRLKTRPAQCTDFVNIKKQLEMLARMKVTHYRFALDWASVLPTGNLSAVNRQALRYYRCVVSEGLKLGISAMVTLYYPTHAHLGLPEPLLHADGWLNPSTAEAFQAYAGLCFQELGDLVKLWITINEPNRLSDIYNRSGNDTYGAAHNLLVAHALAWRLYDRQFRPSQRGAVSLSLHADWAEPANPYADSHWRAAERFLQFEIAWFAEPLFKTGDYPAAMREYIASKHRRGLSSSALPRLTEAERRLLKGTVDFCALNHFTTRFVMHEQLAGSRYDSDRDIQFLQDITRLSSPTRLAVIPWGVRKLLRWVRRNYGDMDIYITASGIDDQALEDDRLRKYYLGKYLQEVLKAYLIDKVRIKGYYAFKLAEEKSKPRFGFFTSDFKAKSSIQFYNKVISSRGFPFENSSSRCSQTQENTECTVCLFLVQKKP

B1: fusion protein S5 (human IgG4 Fc - linker - FGF21 variant 98R, 167H, 171A, 175H) (Fc fusion)
chain: ESKYGPPCPPCPAPEAAGGPSVFLFPPKPKDTLMISRTPEVTCVVVDVSQEDPEVQFNWYVDGVEVHNAKTKPREEQFNSTYRVVSVLTVLHQDWLNGKEYKCKVSNKGLPSSIEKTISKAKGQPREPQVYTLPPSQEEMTKNQVSLTCLVKGFYPSDIAVEWESNGQPENNYKTTPPVLDSDGSFFLYSKLTVDKSRWQEGNVFSCSVMHEALHNHYTQKSLSLSLGGGGGSGGGGSGGGGSHPIPDSSPLLQFGGQVRQRYLYTDDAQQTEAHLEIREDGTVGGAADQSPESLLQLKALKPGVIQILGVKTSRFLCQRPDGALYGSLHFDPEACSFRERLLEDGYNVYQSEAHGLPLHLPGNKSPHRDPAPRGPARFLPLPGLPPALPEPPGILAPQPPDVGSSDPLHMVGASQGHSPSYAS
Q: Which “EC50 (read off the curve)” value [1] does the source give for B1 here?
A: ~0.2 µg/mL

B2: fusion protein S1 (human IgG4 Fc - linker - FGF21 variant 98R, 167H, 171A) (Fc fusion)
chain: ESKYGPPCPPCPAPEAAGGPSVFLFPPKPKDTLMISRTPEVTCVVVDVSQEDPEVQFNWYVDGVEVHNAKTKPREEQFNSTYRVVSVLTVLHQDWLNGKEYKCKVSNKGLPSSIEKTISKAKGQPREPQVYTLPPSQEEMTKNQVSLTCLVKGFYPSDIAVEWESNGQPENNYKTTPPVLDSDGSFFLYSKLTVDKSRWQEGNVFSCSVMHEALHNHYTQKSLSLSLGGGGGSGGGGSGGGGSHPIPDSSPLLQFGGQVRQRYLYTDDAQQTEAHLEIREDGTVGGAADQSPESLLQLKALKPGVIQILGVKTSRFLCQRPDGALYGSLHFDPEACSFRERLLEDGYNVYQSEAHGLPLHLPGNKSPHRDPAPRGPARFLPLPGLPPALPEPPGILAPQPPDVGSSDPLHMVGASQGRSPSYAS
notes: Purified from HEK293F cells by Protein A
Q: How did the Kd [2] turn out when B2 was run?
A: 0.63 nM

Q: And the Response values [2]?
A: 0.17

Q: What about the “EC50 (read off the curve)” value [1] of the same binder?
A: ~0.02 µg/mL

B3: fusion protein S4 (human IgG4 Fc - linker - FGF21 variant 98R, 167H, 171A, 175P) (Fc fusion)
chain: ESKYGPPCPPCPAPEAAGGPSVFLFPPKPKDTLMISRTPEVTCVVVDVSQEDPEVQFNWYVDGVEVHNAKTKPREEQFNSTYRVVSVLTVLHQDWLNGKEYKCKVSNKGLPSSIEKTISKAKGQPREPQVYTLPPSQEEMTKNQVSLTCLVKGFYPSDIAVEWESNGQPENNYKTTPPVLDSDGSFFLYSKLTVDKSRWQEGNVFSCSVMHEALHNHYTQKSLSLSLGGGGGSGGGGSGGGGSHPIPDSSPLLQFGGQVRQRYLYTDDAQQTEAHLEIREDGTVGGAADQSPESLLQLKALKPGVIQILGVKTSRFLCQRPDGALYGSLHFDPEACSFRERLLEDGYNVYQSEAHGLPLHLPGNKSPHRDPAPRGPARFLPLPGLPPALPEPPGILAPQPPDVGSSDPLHMVGASQGPSPSYAS
Q: For B3, which “EC50 (read off the curve)” value [1] is on record?
A: ~0.08 µg/mL

B4: fusion protein S7 (human IgG4 Fc - linker - FGF21 variant 98R, 171A) (Fc fusion)
chain: ESKYGPPCPPCPAPEAAGGPSVFLFPPKPKDTLMISRTPEVTCVVVDVSQEDPEVQFNWYVDGVEVHNAKTKPREEQFNSTYRVVSVLTVLHQDWLNGKEYKCKVSNKGLPSSIEKTISKAKGQPREPQVYTLPPSQEEMTKNQVSLTCLVKGFYPSDIAVEWESNGQPENNYKTTPPVLDSDGSFFLYSKLTVDKSRWQEGNVFSCSVMHEALHNHYTQKSLSLSLGGGGGSGGGGSGGGGSHPIPDSSPLLQFGGQVRQRYLYTDDAQQTEAHLEIREDGTVGGAADQSPESLLQLKALKPGVIQILGVKTSRFLCQRPDGALYGSLHFDPEACSFRERLLEDGYNVYQSEAHGLPLHLPGNKSPHRDPAPRGPARFLPLPGLPPALPEPPGILAPQPPDVGSSDPLSMVGASQGRSPSYAS
Q: Which results are given for B4?
A: Kd [2]: 0.873 nM; Response values [2]: 0.143

B5: fusion protein S2 (human IgG4 Fc - linker - FGF21 variant 98R, 167H, 171A, 175L) (Fc fusion)
chain: ESKYGPPCPPCPAPEAAGGPSVFLFPPKPKDTLMISRTPEVTCVVVDVSQEDPEVQFNWYVDGVEVHNAKTKPREEQFNSTYRVVSVLTVLHQDWLNGKEYKCKVSNKGLPSSIEKTISKAKGQPREPQVYTLPPSQEEMTKNQVSLTCLVKGFYPSDIAVEWESNGQPENNYKTTPPVLDSDGSFFLYSKLTVDKSRWQEGNVFSCSVMHEALHNHYTQKSLSLSLGGGGGSGGGGSGGGGSHPIPDSSPLLQFGGQVRQRYLYTDDAQQTEAHLEIREDGTVGGAADQSPESLLQLKALKPGVIQILGVKTSRFLCQRPDGALYGSLHFDPEACSFRERLLEDGYNVYQSEAHGLPLHLPGNKSPHRDPAPRGPARFLPLPGLPPALPEPPGILAPQPPDVGSSDPLHMVGASQGLSPSYAS
Q: How did the Kd [2] turn out when B5 was run?
A: 0.429 nM

Q: And the Response values [2]?
A: 0.19

Q: What about the “binding ability relative to S7” value [3] of the same binder?
A: 2 fold

Q: What about the “EC50 (read off the curve)” value [1] of the same binder?
A: ~0.02 µg/mL
